Data published in article PMC5437309.

What was measured:
[1] = target: JNK (Homo sapiens) (UniProt P45983); details: cited from earlier work
[2] = target: GST-JNK1α1 (UniProt P45983); assay: pull-down; GST-JNK isoform (2 μg) or unfused GST on glutathione beads, rotated 1 h at +4 °C with cleared 293T lysate holding the luciferase fusion (7,000 units), low-salt buffer with 0.5% Igepal, washed three times; luciferase on beads as per cent of input

Substance	Kd [1] [nM]	ratio of pulldown, lit-state mutant against dark-state mutant [2] [fold]
JIP peptide (from UniProt Q9UQF2)	800	–
luciferase-fused OptoJNKi.lsm (AsLOV2Jα I539E-JIP11) (from UniProt Q9UQF2 157-167) (designed binder)	–	30
